Laboratory results taken from article PMC2900200 (2008).

T1: Methuselah (Mth) ectodomain, C-terminal biotinylated (Drosophila melanogaster)
T1 sequence (O97148 whole entry, looked up): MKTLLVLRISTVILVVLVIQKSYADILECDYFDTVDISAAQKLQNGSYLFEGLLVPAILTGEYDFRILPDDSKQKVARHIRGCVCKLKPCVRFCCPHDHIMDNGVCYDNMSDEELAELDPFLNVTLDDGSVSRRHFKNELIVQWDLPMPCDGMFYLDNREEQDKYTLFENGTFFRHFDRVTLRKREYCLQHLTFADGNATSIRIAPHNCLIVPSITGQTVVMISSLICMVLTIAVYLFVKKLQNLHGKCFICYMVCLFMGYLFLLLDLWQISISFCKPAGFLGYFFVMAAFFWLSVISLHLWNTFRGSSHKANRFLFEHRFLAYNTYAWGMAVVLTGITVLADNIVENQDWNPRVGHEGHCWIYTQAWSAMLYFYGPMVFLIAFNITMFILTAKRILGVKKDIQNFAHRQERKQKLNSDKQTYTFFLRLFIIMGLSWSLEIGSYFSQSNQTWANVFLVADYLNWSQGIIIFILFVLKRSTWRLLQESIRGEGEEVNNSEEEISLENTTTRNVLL

T2: LP1 peptide
T2 chain: FPSSWLQRYYLAKRR

B1: LP1 W5K mutant peptide (peptide)
peptide: Ac-FPSSKLQRYYLAKRR-NH2
B2: LP1 R15Q mutant peptide (peptide)
peptide: Ac-FPSSWLQRYYLAKRQ-NH2
B3: LP1 peptide (wild type) (peptide)
peptide: Ac-FPSSWLQRYYLAKRR-NH2
B4: LP1 L11Q mutant peptide (peptide)
peptide: Ac-FPSSWLQRYYQAKRR-NH2
B5: LP1 W5F mutant peptide (peptide)
peptide: Ac-FPSSFLQRYYLAKRR-NH2
B6: Methuselah ectodomain (protein)
chain: DILECDYFDTVDISAAQKLQNGSYLFEGLLVPAILTGEYDFRILPDDSKQKVARHIRGCVCKLKPCVRFCCPHDHIMDNGVCYDNMSDEELAELDPFLNVTLDDGSVSRRHFKNELIVQWDLPMPCDGMFYLDNREEQDKYTLFENGTFFRHFDRVTLRKREYCLQHLTFADGNATSIRIAPHNCLIVPSITGQ
B7: LP1 Y9F mutant peptide (peptide)
peptide: Ac-FPSSWLQRFYLAKRR-NH2

How the values were obtained:
[1] = target: T1, Methuselah (Mth) ectodomain, C-terminal biotinylated (Drosophila melanogaster); experiment: SPR
LP1 peptide = target: T2, LP1 peptide

| Binder | Kd [1] | Kd (LP1 peptide) |
| --- | --- | --- |
| B1 | > 15000 nM | – |
| B2 | 37.7 nM | – |
| B3 | 18.5 nM | – |
| B4 | 24.5 nM | – |
| B5 | 12000 nM | – |
| B6 | – | 18 nM |
| B7 | 49.5 nM | – |
